{"source": "patent US5750349", "key": {"[1]": {"biological_target": "β-amyloid (1-40)", "assay": "sandwich EIA, solid phase BAN-50a, label BA-27a-HRP (1500-fold dilution)"}, "[2]": {"biological_target": "β-amyloid (1-38)", "assay": "sandwich EIA, solid phase BAN-50a, label BA-27a-HRP; against β-amyloid (1-40)"}, "[3]": {"biological_target": "β-amyloid (1-42)", "assay": "sandwich EIA, solid phase BAN-50a, label BA-27a-HRP; against β-amyloid (1-40)"}, "[4]": {"biological_target": "β-amyloid (1-39)", "assay": "sandwich EIA, solid phase BAN-50a, label BA-27a-HRP; against β-amyloid (1-40)"}, "[5]": {"biological_target": "β-amyloid (1-40)", "assay": "sandwich EIA, solid phase BAN-052a, label BA-27a-HRP"}, "[6]": {"biological_target": "β-amyloid (1-40)", "assay": "competitive EIA with β-Gal-labeled βA(1-40); unlabeled peptide varied"}, "[7]": {"biological_target": "β-amyloid (1-40)", "assay": "sandwich EIA, solid phase BAN-50a, label BA-27a-HRP (1000-fold dilution)"}, "[8]": {"biological_target": "β-amyloid (1-38)", "assay": "sandwich EIA, solid phase BAN-50a, label BA-27a-HRP"}, "[9]": {"biological_target": "β-amyloid (1-42)", "assay": "sandwich EIA, solid phase BAN-50a, label BA-27a-HRP"}, "[10]": {"biological_target": "β-amyloid (1-39)", "assay": "sandwich EIA, solid phase BAN-50a, label BA-27a-HRP"}, "[11]": {"biological_target": "β-amyloid (1-40)", "assay": "sandwich EIA, solid phase BA-27a, label BAN-052a-HRP"}}}
{"substance": "BA-27a (antibody)", "values": [{"measurement": "detection sensitivity", "setting": "[1]", "value": 0.2, "unit": "pg/well"}, {"measurement": "cross reactivity", "setting": "[2]", "value": "< 2", "unit": "%"}, {"measurement": "cross reactivity", "setting": "[3]", "value": "< 2", "unit": "%"}, {"measurement": "cross reactivity", "setting": "[4]", "value": "< 2", "unit": "%"}, {"measurement": "detection sensitivity", "setting": "[5]", "value": 0.6, "unit": "pg/well"}, {"measurement": "IC50", "setting": "[6]", "value": 200, "unit": "nM"}, {"measurement": "detection sensitivity", "setting": "[7]", "value": 0.2, "unit": "pg/well"}, {"measurement": "detection sensitivity", "setting": "[8]", "value": 85, "unit": "pg/well"}, {"measurement": "detection sensitivity", "setting": "[9]", "value": 18, "unit": "pg/well"}, {"measurement": "detection sensitivity", "setting": "[10]", "value": 17, "unit": "pg/well"}, {"measurement": "detection sensitivity", "setting": "[11]", "value": 10, "unit": "pg/well"}]}
